Source: PMC4207802

Key:
[1] = molecular target: T3 – TSHR-LRR11/FSHR (human) (UniProt P16473)
[2] = molecular target: T4 – TSHR-LRR10/FSHR (human) (UniProt P16473)
[3] = molecular target: T1 – FSHR-HinR/TSHR (human) (UniProt P16473)

EC50 of intracellular cAMP accumulation in transfected COS-7 cells, rhTSH dose-response [1]: 3.8 mU/ml
intracellular cAMP accumulation in transfected COS-7 cells, rhTSH 0–100 mU/ml; value at 100 mU/ml [1]: 32.9 nM
EC50 of intracellular cAMP accumulation in transfected COS-7 cells, rhTSH dose-response [2]: 11.6 mU/ml
intracellular cAMP accumulation in transfected COS-7 cells, rhTSH 0–100 mU/ml; value at 100 mU/ml [2]: 36.6 nM
EC50 of intracellular cAMP accumulation in transfected COS-7 cells, rhTSH dose-response [3]: 0.4 mU/ml
intracellular cAMP accumulation in transfected COS-7 cells, rhTSH 0–100 mU/ml; value at 100 mU/ml [3]: 57.2 nM
Substance: recombinant human thyrotropin (rhTSH) (from UniProt P01215 25-116; P01222 21-132) (ligand)
